From patent publication EP2112166B1

Key:
CTLA-4-Ig(G4) (Repligen) [1] = target: CTLA-4-Ig(G4) (Repligen) (UniProt P16410); assay: competition ELISA: CTLA-4-Ig(G4) binding to coated B7.2-Ig(G1)
[2] = target: CTLA-4-IgG1 fusion protein (made in-house) (human) (UniProt P16410); assay: BIAcore; CTLA-4-Ig on chip, 878.7 RU
[3] = target: CTLA-4-IgG1 fusion protein (made in-house) (human) (UniProt P16410); assay: BIAcore; CTLA-4-Ig on chip, 504.5 RU
CTLA-4-Ig(G4) (Repligen) [4] = target: CTLA-4-Ig(G4) (Repligen) (UniProt P16410); assay: competition ELISA: CTLA-4-Ig(G4) binding to coated B7.1-Ig(G1)
[5] = target: CTLA-4-IgG1 fusion protein (made in-house) (human) (UniProt P16410); assay: BIAcore; CTLA-4-Ig on chip, 457.2 RU

IC50 (CTLA-4-Ig(G4) (Repligen) [1]): 1.5 nM | Ka [2]: 3.9e+09 M⁻¹ | Kd [2]: 0.254 nM | koff [2]: 0.000253 s⁻¹ | kon [2]: 1e+06 M⁻¹ s⁻¹ | Ka [3]: 2.2e+09 M⁻¹ | Kd [3]: 0.455 nM | koff [3]: 0.00043 s⁻¹ | kon [3]: 940000 M⁻¹ s⁻¹ | IC50 (CTLA-4-Ig(G4) (Repligen) [4]): 3.39 nM | Ka [5]: 1.4e+09 M⁻¹ | Kd [5]: 0.721 nM | koff [5]: 0.000505 s⁻¹ | kon [5]: 700000 M⁻¹ s⁻¹
B1: 4.10.2 antibody (antibody, from another filing, human IgG2, V domains shown)
VH: GVVQPGRSLRLSCVASGFIFSSHGIHWVRQAPGKGLEWVAVIWYDGRNKDYADSVKGRFTISRDNSKNTLYLQMNSLRAEDTAVYYCARVAPLGPLDYWGQGTLVTVSS
VL: SPGTLSLSPGERATLSCRASQSISSNFLAWYQQKPGQAPRLLIYRPSSRATGIPDSFSGSGSGTDFTLTISRLEPEDFALYYCQQYGTSPFTFGPGTKVDIKR
